{"source": "paper PMC4650548", "biological_target": "NBS1 (UniProt O60934)", "assay": "biotin-peptide streptavidin pull-down from lysate"}
{"substance": "PHRF1 908-924 (from UniProt Q9P1Y6) pSDpTE peptide", "values": [{"measurement": "binding against the reference", "setting": "reference: SDpTE peptide, sites S915", "value": "gained"}, {"measurement": "binding against the reference", "setting": "reference: pSDTE peptide, sites T917", "value": "gained"}]}
